Experimental data from the nanobody polyreactivity screen of Harvey et al. (2022).

Test: yeast display, Sf9 membrane polyspecificity reagent, FACS + sequencing; frameworks hold sequencing errors
Method in brief: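 Genes from sorted yeast were amplified by colony PCR, read by MiSeq 2 × 250 sequencing and filtered on CDR length. These cells carried a synthetic nanobody library in Saccharomyces cerevisiae BJ5465 and were sorted by FACS into low and high (top ~1%) gates on anti-HA and streptavidin fluorescence. Polyreactivity is labelled according to the gate of origin.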

Sequence	polyreactivity (PSR sort gate)
QVQLVESGGGLVQAGGCLRLSCAASGSSFGYNGMGWYSQAPGKEREVVAAISSGGNTYYGDSVNGRFTISRDNAKNTVYLQMNSLKPEDTAVYYCNADYVASGYDFDEGYWGQGTQVTVST	low polyreactivity
QVQLVESGGGLVQAGGSLRLSCAASGSIFYYNVMGWYRQAPGKETELVAAISQSGVRTYYADSVKGRFTISRDNAKNTVYLQMNSLKPEDTAVYYCAAKARRLYASSYDYWGQGTQVTVSS	high polyreactivity
QDQLVESGGGLVQAGGTLRLSCDASGSTFFRNAMGWYRQPPGKEREMVADISASGGSTYYADSVKGRFTISRDNAKNTVYLQMNSLKPEDNADYYCNALYIYFYNYLTMDYWGQGSQVTVSS	low polyreactivity
QVQLVESGGGLVQAGGSLRLSCAASGIIFGKYAMGWYRPAPGKDRELVAAINYSGSTYYADSVKGRFTISRDNAKNTVYLQMNSLKPEDTAVYYCAARNRTFFQPTYYYWGQGTQVTVSS	high polyreactivity
QVQLVESGGGLVQAGGSLRLSCAASGSIFYLYTMGWYRQATRKERELVAGISNGDRTYYADSVKGRFTISRDNAKNTVYFQMNSLKPEDTAVYYCAKGWYRIKRNDYWGQGTQVTVAS	low polyreactivity
QVQLVESGGGLVQAGGSLRLSCAASGLTFSDYAIGWYRQAPGKEREFVAAITRNGGSTRYADSVKGRFTFSRDNAKNTVYLKMNRLKPEDTAVYYCATDVGFGRKQRPHRPGYGYWGQGTQVTVSS	low polyreactivity
QVQHVESGGGLVQAGGSLRLSCAASIRIFRYYAMGRSRQGPGKEREVVASSRSASSTYYADSVKGRFTISRDNAKNPVYLQMNSLKAEDTAVYYCNAVSPLSIWSSRDGWYGYWGQGTQVTVSS	high polyreactivity
QVQLVESGGGLVQAGGSLRLSCAASGSTFFDNAMGWYRQAPGKERELVAAITWNGGRTYYADSVKGRFTISRDNAKNTVYLQMNSLKPEDTAVYYCAKVPLYGRVIYRQPDVYSWGQGTQVTVSS	high polyreactivity
QVQLVESGGGLVQAGGSLRLSCAASGFIFGHYAMGWYRQAPGKERELVAAIRSRGGDRTYADSVKGRFTISRDNAKNTVYLQMNSLKPEDTAVYYCAADGPGTSEDDYWGQGTQVTVSS	high polyreactivity
QVQLVESAGGLVQAGGSLRLSCAASGRTFGYYAMGWYRQAPGKERELVAAISSGGSTNYADSVKGRFTISRDNAKNTVYLQMNSLKPEDTAVYHCAAKAWYYPGRRNYYQYYYWGQGTQVTVSS	high polyreactivity
QVQLVESGGGLVQAGGSLRLSCAASGRTFRGNAMGWYRQAPGKERELVAAISRRGVSTYYADSVKGRFTISRDNAKNTVYLQMNSLKPEDTAVYYCAVVVYQGFRSKYYYWGQGTQVTVSS	high polyreactivity
QVQIVESGGGLVQAGGSLRLSCASYGFTFWGYTMGWYRQAPGKERELVAAITSNGSTYYADSVKGRFTISRDNAQNTVYLQMNSLKPEDTAVYYCAATRGSSEYFYWGQGSQVTVSS	low polyreactivity
QVQLVESGGGLVQAGGSLRLSCAASGNIFTSYAMGWYRQAPGKERELVAAISSGGRTSYADSVKGRFTISRDNAKNTVYLQMNSLKPEDTAVYYCAAYYRRWPREYYYWGQGTQVTVSS	high polyreactivity
QVQLVESGGGLVQAGGSLRLSWAASGSTFPYYAMGWYRQAPGKERELVAAISWSDANTYYADSVKGRFTISRDNAKNTVYLQMNSLKPEDTAVYYCAAEPYDRYGPYTGYGLNYWGQGTQVTVSS	low polyreactivity
QVQLVESGGGLVQAGGSLRLSCAASGSTFRFYAMGWYRQAPGKERELVAAISSGGSTNYADSVKGRFTISRDNAKNTVYLQMNSLKPEDTAVYYCNAEDYNGRQYYHKMDYWGQGTQVTVSS	high polyreactivity
QVQLVESGGGLVQAGGSLRLSCAASGSTFLRYAMGWYRQAPGKERELVAAISSGTSTNYADSVKGRFTISRDNAKNTVYLQMNSLKPEDTAVYYCAAVYAWLFWYDSWGQGTQVTVSS	low polyreactivity
QVQLVESGGGLVQAGGSLRLSCAASGFIFAGYAMGWYRQAPGKERELVAAISSGGGSTYYADSVKGRFTISRDNAKNTVYLQMNSLKPEDTAVYYCAARRLYPPGYYYWGQGTQVTVSS	high polyreactivity
QVQLVESGGGLVQAGGSLRLSCAASGSTFSEYVMGWYRQAPGKQRELVAAIRSNGGSTYYADSVKGRFTISRDNAKNTVYLQMNSLKPEDTAVYYCNRVYSRRTYNSPLYDYWGQGTQVTVSS	high polyreactivity
QVQLVESGGGLVQAGGSLRLSCAASGSIIQGYVMGWYRQAPGKERELVAAISNSGSSTYYADSVKGRFTISRDNAKNTVYIQMNSLKPEDTAVYYCAVLRSYRGYKYGYWGQGTQVTVSS	high polyreactivity
QVQLVESGGGLVQAGGSLRLSCAASGSTFDSNVMGWYRQAPGKERELVAAIDLSGGITYYADSVKGRFTISRDNAKNTVYLQMNSLKPEDTAVYYCATDEGYRYPHVDLTEVYYWGQGTQVTVSS	low polyreactivity
QVQLVESGGGLVQAGGSLRLSCAASGRILPRNAMGWYRQAPGKERELVATIDYSVGSTYYADSVKGRFTISRDNAKNTVYLQMNSLKPEDTAVYYCNAQVLVRPIQGEYGYWGRGTQVTVSS	low polyreactivity
QVQLVESGGGLVQAGGSLRLSCAASGSIFDQNAMGWYRQAPGKERELVAAITFSGVDTYYADSAKGRFTISRDNAKNTVYLQMNSLKPEDTAVYYCNADRGYNLVRRSQAVVEMDYWGQGTQVTVSS	low polyreactivity

Sequence	polyreactivity (PSR sort gate)
QVQLVESGGVLVQAGGSLRLSCAASGRIFRYYAMGWYRQAPGKERELVAAISSDGSTDYADSVKGRFTISRDNAKNTVYLLMNSLKPEDTAVYYCAASVVSYGHDYWGQGTQVTVSS	low polyreactivity
QVQLVESGGGLVQAGGSLRLSCAASGSTFSYYAMGWDRQAPWKERELVAAITAGGGSTYYADSVKGRFTISRDNAKNTVYLQMNSLKPEDTAVYYCNADQIFGPALNLWKLDYWGQGTQVTVSS	low polyreactivity
QVQLVESGGGLVQAGGSLRLSCAASGSIFLVYALGWYRQAPGKERELVATITRGGGTYYADSVKGRFTISGDNAKNTVYLQMNSLKPEDTAVSYCAYPLSRTWGNYLAWSYPRDDSWGQGTQVTVSS	high polyreactivity
QVQLVESGGGLVQAGGSLRLSCAASGRTFGVNAMGWYRQAPGKEREFVAAISRSTGSTYYADSVKGRFTISRDNAKNTVYLQMNSLKPEDTAVYYCAVKGASYPAYRGYDYWGQGTQVTVSS	high polyreactivity
QVHLVESGGGLVQAGGSLRLSCADYGSNLYYKAMGWYRQAPGKEMQVVAAISTGGRTNYADSVKGRFTISRDNAKNTVYLQMNSLKPEDSAVYYCAAETTTEITDTDYDYWGQGTQVTVSS	low polyreactivity
QVQLVESGGGLVQAGGSLRLSCAASGRIFYPYAMGWYRQAPGTERELVATITRTGSTYYADSVKGRFTISRDNAKNTVYLQMNSLKPEDTAVYDCAVQRSYVGPRQYNYWGQGTQVTVSS	high polyreactivity
QVQLVESGGGLVQAGGSLRLSCAASGFTFRYYAMGWYRQAPGKERELVASITSGGSTNYADSVKGRFTISRDNAKNTVYLQMNSLKPEDTAVYYCAAQPYKGTGYDYWGQGTQVTVSS	high polyreactivity
QVQLVESGGGLVQAGGSLRLSSAASGSTFGAYAMGWYRQAPGKERELVAVINSDGSTNYADSVKGRFTISRDNAKNTVYLQMNSLKPEDTAVYFCAKERTSRGGVPRMNYWGQGTQVTVSS	low polyreactivity
QDQLVESGGGLVQAGGSLRLSCAASGSTFVDNAIGWYRQAPGKERELVAAISRGGSTHYADSVKGRFTISRDNAKNTVYLQMNSLKPEDTAVYYCAAVIDSREEYWGQGTQVTVSS	high polyreactivity
QGQRVESGGGLVQAGGSLRLTCAPSGRTFTGYAMGWYRQATGKARELVAGINWSTGSTYYADSVKGRFTISRDNAKNTVYLQMNSLKPEDTAVYYCAAGYYYYGNGRIVQYEYWGQGTQVTVSS	high polyreactivity
QVQLVESGGGLVQAGGSLRLSCAASGSTFGRYAMGWYRQAPGKERELVAAISKSGGSTYYADSVKGRFTISRDNEKNTVYLQMNSLNPEDTAVYYCAATTTRYSYEYWGQGTQVTVSS	low polyreactivity
QVQLVESGGGLFKAGGSLRLSCAASGLIFWGYTMAWSRQAPGKERELVAAISRRGGRTYYAASVMGRFTISRDNAKNTVYLQMNTLKPEDTAVDYCKADITSSGPKSDYWGQGTQVTVSS	high polyreactivity
QVQLVESGGGLVQAGGSLRLSCAASGRIFRPYAMGWYRQAPGKERELVAGITSSGGSTYYADSVKGRYTISRDNAKNTVYLQMNSLKPEDTAVYYCAAVHGLFRPLHYYWGQGTQVTVSS	low polyreactivity
QVQRVESGGGLVQAGGSLRLSCAASGLIFRKYAMGWYRQEPGKERELVAAISLRGVSTYYADSVKGRFTISRDNAKNTVYLQMNRLKPEDTAVYYCAADVYYPLGYGLDYWGQGYQVTVSS	low polyreactivity
QVQHVESGGGLVQAGGSLRLSCAASGRIFVPYGMGWYRQAPGKERELVAAISLRGGTTYYADSVKGRFTISRDNAKNTVYLQMNSLKPEDTAVYYCAARGYVSVWRPYHWFVAGDYWGQGTQVTVSS	high polyreactivity
QVQLVESGGGLVQAGGSLRLSCAASGSILAYNAMGWYRKAPGKERELVAAIRLSGGSTYYADSVKGRFTISRDNAKNTVYLQMNSLKPEDTAVYYCARRYYRYDTRKYNYWGQGTQVTVSS	high polyreactivity
QGQLVESGGGLVQAGGSLSLSCAASGSIFQGYAMGWYRQAPGNEWEFVAAISESDGSTYYADSVKGRCTISRDNAKNTVYLQMNSLKPEDTAVYYCAADKQAYVTDDYWGQGTQVTVSS	high polyreactivity
QVQLVESGGGLVQAGGSIRLSCAASVSTFFVYTMGWYRQATGKGMELVAAISGSGGSTAYADSVKGRFTISRDNAKNTVYLQLNSLKPEDTAVYYCAARRHVYLRGSTFEFNYWGQGTQVTVSS	high polyreactivity
QVQLVESGGGLVQAGGSLRLSCAASGRTFSYYTMGWYRQAPGKERELVARISNRGTNTYYADSVKGRFTISRDNAKNTVYLQMNSLKPEDTAVYYCNAAFSVRHLYRYDYWGQGTQVTVSL	low polyreactivity
QVQLVESGGGLVQAGGSLRISCAASGFTFYYNAMGCYRQAPVKERELVAIRFRGGNTYYAYSVKGRFTISRDNAKITVYLQMNSLKPEDTAVYYCTADDRGSTYVYFDYWGQGTQVTVSS	low polyreactivity
QVQIVESGGGLVQAGGSLRLSCAASGSTYDTYAMVWYRQAPGKERELVAGITRRGGRTYYADSVKGRFTISRDNAKNTVYLQMISLKPEDTAVYYCAARTYGYYLYDYWGQGSQVTVSS	high polyreactivity
